This passage reports amyloid nucleation score results from the supplement of paper PMC12042874.

± gives the uncertainty stated by the source.

The data set in a line: amyloid nucleation score (Sup35N fusion, yeast selection) (log enrichment); library NNK3; higher = more nucleation; inactive = no reads after selection. A digest of the protocol: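 Yeast lacking psi expressed peptides of 20 random codons fused to Sup35N, received 100 μM copper sulfate for 24 hours, and were then grown for 7 days at 30°C on medium lacking adenine and uracil. Illumina sequencing of input and output plasmid inserts provided the reads. Nucleation scores are DiMSum log enrichments of output over input, centred on the mode of non-aggregating sequences. Any sequence with under 100 input reads was excluded.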
With KHRWVQLLWCWYFTGSQYRI, the amyloid nucleation score entry was “inactive”.
Under KHSDL stands “inactive”; under KHVMLCCNFRKLHSATHKRT, “inactive”; under KICWYELNLDNSLVLLGRRY, 1.78 ± 0.084.
Under KILQDKKMFRGFRNGRRAGI stands “inactive”; under KIVFSKSLGFLVFVMRYNQW, “inactive”.
Under KIYDVFSRFKYRMQSVYKQA stands “inactive”.
On to KIYQYPVGRLGNCSGLHVWT, for which the amyloid nucleation score result was “inactive”.
For KKASVLSHVTYNRMITAWNI, the amyloid nucleation score entry is “inactive”.
Consider KKGGVVINVSTNRIRTLTCP, for which the amyloid nucleation score result is “inactive”.
With KKKAGLGRDWYWTVFLMVLS the entry was “inactive”; with KKRSMD, “inactive”; with KKVNDML, “inactive”.
With KLAVFYFVVLVFRGERISSC the entry was “inactive”; with KLILKYCIRCQNGYDSARMS, -0.291 ± 0.5; with KLKPMPNWSRLSRDWVLCCS, “inactive”.
Under KLPSEISKNYT stands “inactive”; under KLQNCVKTDLHA, “inactive”.
Take KLSGTLFFGSKGFVFPPYAF: the amyloid nucleation score result was “inactive”.
With KLTPRFICVMCTCLIRL the entry was “inactive”.
With KLWKWNTGNSVVVLGLMSGV the entry was “inactive”; with KLYELDAVMMAWVIMY, “inactive”.
Under KMDKFPV stands 0.391 ± 0.34; under KMRFLIALNVTTWGPKLLCG, “inactive”; under KMRRVLLSLSVYMNCKSMVR, “inactive”.
For the substance KMVGVKK, the amyloid nucleation score entry is “inactive”.
As to KNMHNPDRY, the amyloid nucleation score result is “inactive”.
Under KNTISCPCWYINRCLVYNNI stands 0.97 ± 0.17; under KNTVSYSATLGKVSMSERRR, “inactive”; under KPASAGLVINAVGSGHSEMW, “inactive”.
KPCVTFSHSAIRISVTWSTN registered an amyloid nucleation score of -0.079 ± 0.38.
Substance KPLSRSLRHSLCNRTAMIRF came in with an amyloid nucleation score of 0.672 ± 0.32.
With KPSFDPFKN the entry was “inactive”.
With KPTIDIKCFCSWVYLKVLRG, the amyloid nucleation score entry was “inactive”.
Under KPVLVVVSNLIPWSYPE stands 2.25 ± 0.085; under KQLLAKTALAYEAIRPPIPI, “inactive”; under KQSMRQSYSVPPEEVDKQGR, “inactive”.
On to KQSYCVWESNYRTMYLNVCR, for which the amyloid nucleation score entry is “inactive”.
With KQYLDLVAFIADGYRVSGDE the entry was “inactive”.
For the substance KRCPWVRNKSVSYLTSKYKL, the amyloid nucleation score entry is “inactive”.
Under KRFGFVNFNCYDLYIKFEIM stands 1.28 ± 0.13.
Under KRLIVVIFKQWPARGCTTHC stands “inactive”.
Under KRLVMWPRLRSRYWHKRAEQ stands “inactive”; under KRSDVYVGKNCSEDMRFSNL, “inactive”; under KRSFGRVIRDIDEYRMVRVV, “inactive”.
KRVKSPNILEMVNYAQ: the amyloid nucleation score is -0.487 ± 0.9.
Under KRWEPMACPDSNRDKLKECV stands “inactive”; under KRWIAHASWSSTGTWFWSGG, “inactive”; under KRYAYAVVGGWVVGVRKHHG, “inactive”.
Under KSAWLRLCIVR stands “inactive”.
Under KSCLCSSTKRKLNRLTYTDR stands “inactive”; under KSDEVTFMWHSHGIRMFR, 0.357 ± 0.4; under KSHPINIRPFKYIPKMLASS, “inactive”.
KSHWTTM displayed an amyloid nucleation score of 1.64 ± 0.11.
Under KSLKTRYSPSVYFDFYLHYG stands 1.07 ± 0.15; under KSSSFSFVASCGHAVILQKK, “inactive”.
With KSWVRGH the entry was “inactive”.
Turning to KTACFLVNCLNYQRAERTLR, the amyloid nucleation score was determined as 1.23 ± 0.18.
With KTFCVVDTR the entry was “inactive”; with KTIGILLNCIGWFVVGLPGS, 0.863 ± 0.21; with KTKVTALCNIKGNNGHFPKH, “inactive”.
Consider KTTTY, for which the amyloid nucleation score is -0.2 ± 0.54.
With KVCRAYWYYPNFTMSRT the entry was “inactive”; with KVCVLVDMHSGHTVHWGLMC, “inactive”; with KVFWHDVILTCG, “inactive”.
Under KVIRESVKSLRHFKFAWLLS stands “inactive”.
Under KVMNLVRFRTDFLESNMRWC stands 0.751 ± 0.17.
As for KVSMPISHTQSLPVVTARCH, the amyloid nucleation score entry was “inactive”.
Under KVVFFTALTEPWFSPQFQGL stands “inactive”; under KVVIF, “inactive”.
Take KWVFWSIYVPFTCKFNMVNR: the amyloid nucleation score entry is “inactive”.
For the substance KWWCHLWVIGVGFALGLYTG, the amyloid nucleation score result was “inactive”.
Under KYICET stands “inactive”; under KYRFLSKSRMRGSACHGKDQ, “inactive”.
With KYSYFFVRKTMLDCSFTEAW the figure was 0.771 ± 0.19; with KYVSECK, “inactive”; with LAASVNYILRNIDCGVRMRF, “inactive”.
Under LADLLLCDLRDCRRSAVGRM stands “inactive”; under LAFCIMNRQFLPLYLPTCSV, “inactive”; under LAFKSDLSFNETVRKSSWLC, “inactive”.
As for LANFHDITWWTWMTSHTGGS, the amyloid nucleation score result was “inactive”.
With LANTSRTGIFMDSNTDSRN the entry was “inactive”; with LAPFLFCRNNF, “inactive”; with LARGDYVMKDMVLAHINDLC, “inactive”.
With LAVALIIRMSYLELGLLNPT the entry was “inactive”; with LAYVLKDYFNCYGVIVVISL, “inactive”.
On to LAYYRPRQEWVPCNSVGLK, for which the amyloid nucleation score result was “inactive”.
Turning to LCATFMNYRVKIWSQLRY, the amyloid nucleation score was -0.426 ± 0.66.
With LCCGVCR the entry was “inactive”.
With LCFNCMS the figure was 2.74 ± 0.076; with LCLMDRGYVS, -0.779 ± 1.4.
Under LCLSSCWYTRGH stands “inactive”; under LCMADYVRGTWVYVPYFWMC, “inactive”; under LCMMMPRIIQFICHSYEHVD, “inactive”.
Turning to LCPRRMA, the amyloid nucleation score was determined as 0.592 ± 0.29.
Under LCPVGCFRCATGPFVKCDVY stands “inactive”.
